In patent US5763571 one finds fold reduction in binding affinity against Raf(1-149) data, which are given here for one substance.

The target of this test is c-Ha-Ras bound to GTP (Ras-GTP) (Homo sapiens (Human)) (UniProt P01112). The test is described as follows: assay not given.

For Raf(1-137), the fold reduction in binding affinity against Raf(1-149) was determined as 10 fold.
